US9463217B1, “Methods and pharmaceutical compositions for treatment of retinal occlusion” (Institut National de la Sante et de la Recherche Medicale, priority 2012, dated 2016)

Columns and labels:
RBC adhesion in SCD = conditions: treatment by hydroxyurea, ref. [32]; cited from earlier work
[1] = system: adhesion of red blood cells (RBCs) from patients with central retinal vein occlusion to human microvascular endothelial cells (HMEC-1); assay: RBC adhesion to HMEC under static conditions (radiometric 51Cr technique), inhibition by antibodies, peptide or annexin V; type: cell-based
Method: (§1) Blood samples were tested after storage at −196° C. as previously described. For the first 10 patients, RBC adhesion (on three occasions, n=30) was measured just after blood sampling and after storage. As the results were similar before and after storage (the interassay coefficient of variation was 13%±2%) all remaining patients were tested after storage.
RBC adhesion was measured under static conditions using a radiometric technique as previously described. Human microvascular endothelial cells (HMEC-1 Biological Branch Products; CDC, Atlanta, Ga., USA) were cultured in MCDB-131 (Invitrogen, Grand Island, N.Y., USA) supplemented with 15% fetal calf serum (D. Dutscher, Brumath, France), endothelial growth factor (10 ng mL^−1) and hydrocortisone (1 μg mL^−1)(Invitrogen). […] Radioactivity in the lysate was measured in a gamma counter, and adhesion was then calculated as RBCs per square millimeter. […] Inhibition of RBC adhesion was assessed using HMEC preincubated with specific antibodies directed against PS receptor (polyclonal anti-PS receptor antibody, Sigma, St Louis, Mo., USA; polyclonal anti-human stabilin-2 antibody, R&D systems, Minneapolis, Minn., USA) or against human CD36 (monoclonal anti-CD36/SR-B3; R&D systems) or antihuman Brain-specific angiogenesis inhibitor-1 (BAI-1; Santa Cruz Biotechnology, Santa Cruz, Calif., USA). […]

[2] = system: adhesion of red blood cells (RBCs) from patients with central retinal vein occlusion to human microvascular endothelial cells (HMEC); assay: RBC adhesion to HMEC under flow conditions (microslides, video-microscopy), inhibition by antibodies, peptide or annexin V; type: cell-based
Method: as §1
Adhesion of RBCs to HMEC under flow conditions was determined according to a previously published technique. Briefly, HMEC were cultured in gelatin (2%) coated glass capillaries (microslides; Camlab Ltd, Cambridge, UK) for 24 h. Microslides containing confluent HMEC were mounted on the stage of a video-microscope. The RBC suspension (hematocrit 0.5%) was perfused through the microslide at a flow rate equivalent to a wall shear stress of 0.03 Pa for […], followed by washout of non-adherent cells for 10 min. The wall shear stress was then increased stepwise (from 0.03 to 0.3 Pa) every 5 min. At each step, adherent RBCs were video-recorded in 10 consecutive fields (one field measures 0.1 mm^2), then were counted using a computerized image analysis system (Optimas Media Cybernetics, Bethesda, Md., USA; R & D Vision, Paris, France) and expressed as number of RBCs per mm^2. Inhibition of RBC adhesion was measured in the presence of the antibodies used in static conditions or after RBC incubation with annexin V.

Molecule	effect on RBC adhesion (in words) (RBC adhesion in SCD)	inhibition of CRVO RBC adhesion to HMEC [1]	inhibition of CRVO RBC adhesion to HMEC ([2]; according to the shear stress)	inhibition of CRVO RBC adhesion to HMEC ([2]; shear stress 0.1 Pa)	inhibition of CRVO RBC adhesion to HMEC ([2]; shear stress 0.3 Pa)
NC(=O)NO [hydroxyurea]	reduced RBC adhesion	–	–	–	–
Annexin V: recombinant, purified annexin V (BD Biosciences); binds to PS (protein, UniProt P08758 2-320, looked up) Annexin A5: AQVLRGTVTDFPGFDERADAETLRKAMKGLGTDEESILTLLTSRSNAQRQEISAAFKTLFGRDLLDDLKSELTGKFEKLIVALMKPSRLYDAYELKHALKGAGTNEKVLTEIIASRTPEELRAIKQVYEEEYGSSLEDDVVGDTSGYYQRMLVVLLQANRDPDAGIDEAQVEQDAQALFQAGELKWGTDEEKFITIFGTRSVSHLRKVFDKYMTISGFQIEETIDRETSGNLEQLLLAVVKSIRSIPAYLAETLYYAMKGAGTDDHTLIRVMVSRSEIDLFNIRKEFRKNFATSLYSMIKGDTSGDYKKALLLLCGEDD	–	35%	68-74%	75%±6%	74%±8%
